# ± gives the standard error. This sample holds only a part of the variants without activity.
# B1: glmS ribozyme (parent)
# chain: AUAAAAGCGCCAGAACUACAGAAAUGUAGUUGACGAGGAGGAGGUUUAUCGAAUUUUCGGCGGAUGCCUCCAAA
# Variants of: B1
# Assay: self-cleavage kobs at 640 uM GlcN6P; higher = faster cleavage; RNA array
# Conditions: with glucosamine-6-phosphate
# Procedure, shortened: (§1)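 Sequenced MiSeq chips were the platform: E. coli RNA polymerase transcribed barcoded ribozyme variants on them in situ, and a hybridised Cy3 probe tracked these at 37 °C. After glucosamine-6-phosphate (40 μM to 10 mM) in HEPES/KCl/Mg(OAc)2 buffer was flowed in, tiles were imaged over ~14 h. Signals normalised to baseline and to non-cleaving reference variants were reduced to per-tile medians and fit to one- or two-exponential decays to obtain kobs. kcat and KM were derived through weighted Michaelis–Menten fits across concentrations.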
row,Variant,self-cleavage kobs at 640 uM GlcN6P [s⁻¹]
1,AUAAAAGCGCCAGAACUACAGAAAUGUAGUUGACGAGGAGGAGGACGAUCGAAUUUUCGGCGGAUGCCUUCAAA [U45A U46C U47G C70U],0.000175 ± 8.3e-05
2,AUAAAAGCGCCAGAACUACAGAAAUGUAGUUGACGAGGAGGAGGUUCAUAGAAUUUUCGGCGGAUGCCGCCAAA [U47C C50A U69G],5.61e-05 ± 2.5e-05
3,AUAAAAGCGCCAGAACUACAGAAAUGUAGUUGACGAGGAGGAGGAUUAUCGAAAUUUCGACGGAUCCCUCCAAA [U45A U54A G60A G66C],< 1e-05
4,AUAAAAGCGCCAGAACUACAGAAAUGUAGUUGACGAGGAGGAGGUUUAUCAAAUUUUCGGCGUAAGCCUCCAAA [G51A G63U U65A],< 1e-05
5,AUAAAAGCGCCAGAACUACAGAAAUGUAGUUGACGAGGAGGAGGUUUAUGGAAUUUACGGCGGUUGCCUCCAAA [C50G U57A A64U],0.000127 ± 5.8e-05
6,AUAAAAGCGCCAGAACUACAGAAAUGUAGUUGACGAGGAGGAGGUUUUCCGAAUACUCGGCGGAUGCCCCCAAA [A48U U49C U55A U56C U69C],< 1e-05
7,AUAAAAGCGCCAGAACUACAGAAAUGUAGUUGACGAGGAGGAGGUGUAUUGACUUUUCGGCGGUUGCCUCCAAA [U46G C50U A53C A64U],< 1e-05
8,AUAAAAGCGCCAGAACUACAGAAAUGUAGUUGACGAGGAGGAGGUGUAUCGAAUGUUCGGCGGAUGCCGCCAAA [U46G U55G U69G],0.000454 ± 0.00015
9,AUAAAAGCGCCAGAACUACAGAAAUGUAGUUGACGAGGAGGAUGUUUAUCGAAUUUUCGGCGGAUGGCUACAAA [G43U C67G C70A],< 1e-05
10,AUAAAAGCGCCAGAACUACAGAAAUGUAGUUGACGAGGAGGUGGUUUAUGGAAUUUUCGGCAGAUGCCUCUAAA [A42U C50G G62A C71U],< 1e-05
11,AUAAAAGCGCCAGAACUACAGAAAUGUAGUUGACGAGGAGGAGGUUUAUAUAAUCUUCGGCGGAUGCCUCCAAA [C50A G51U U55C],< 1e-05
12,AUAAAAGCGCCAGAACUACAGAAAUGUAGUUGACGAGGAGGAGGUUUAUCGCGUUUUCGGCGGUUGCCUCCAAA [A52C A53G A64U],< 1e-05
13,AUAAAAGCGCCAGAACUACAGAAAUGUAGUUGACGAGGAGGAUGUUCAUCGAAUUUUCGGCGGAUUCCUCCAAA [G43U U47C G66U],< 1e-05
14,AUAAAAGCGCCAGAACUACAGAAAUGUAGUUGACGAGGAGGAGGUUGAUCAGAUUUUCGGCGGAGGCCUCCAAA [U47G G51A A52G U65G],< 1e-05
15,AUAAAAGCGCCAGAACUACAGAAAUGUAGUUGACGAGGAGGAGGUAUAUUGAAUCUUCGGCGGAUGCCUCCAAA [U46A C50U U55C],< 1e-05
16,AUAAAAGCGCCAGAACUACAGAAAUGUAGUUGACGAGGAGGAGUUAUAUCGAUUUUUCGGCGGAUGCCUGCAAA [G44U U46A A53U C70G],< 1e-05
17,AUAAAAGCGCCAGAACUACAGAAAUGUAGUUGACGAGGAGGAGGGUUAUUGAAUUUUCGGCGGAUGCCUUCAAA [U45G C50U C70U],< 1e-05
18,AUAAAAGCGCCAGAACUACAGAAAUGUAGUUGACGAGGAGGAGGUGUAUCGACUUUUCGGCGGAUGUCUCCAAA [U46G A53C C67U],7.34e-05 ± 2.7e-05
19,AUAAAAGCGCCAGAACUACAGAAAUGUAGUUGACGAGGAGGAGGUGUAUAGAAUUUUCGGCGGAUGGCUCCAAA [U46G C50A C67G],0.000631 ± 0.00012
20,AUAAAAGCGCCAGAACUACAGAAAUGUAGUUGACGAGGAGGAGGUUUUUCGAAUUUUUGGCGGCUGCCUCCAAA [A48U C58U A64C],< 1e-05
21,AUAAAAGCGCCAGAACUACAGAAAUGUAGUUGACGAGGAGGAGGUUUAUUGAUUUUUCGGCGGAUGCCUGCAAA [C50U A53U C70G],5.27e-05 ± 2.4e-05
22,AUAAAAGCGCCAGAACUACAGAAAUGUAGUUGACGAGGAGGAGUGUUAUCGACUUUUCGGCGGAUGCCUCCAAA [G44U U45G A53C],0.000372 ± 0.00011
23,AUAAAAGCGCCAGAACUACAGAAAUGUAGUUGACGAGGAGGAGGUUUAACGAAUUUUCUGCGGAUGCCUCGAAA [U49A G59U C71G],< 1e-05
24,AUAAAAGCGCCAGAACUACAGAAAUGUAGUUGACGAGGAGGAGGUUUAAUGAAUUUUCGGCGGAUGAGUCAAAA [U49A C50U C67A C68G C71A],5.04e-05 ± 1.8e-05
25,AUAAAAGCGCCAGAACUACAGAAAUGUAGUUGACGAGGAGGAGGUUGAACGGAUUUUCGGCGGAUGCCUCCAAA [U47G U49A A52G],< 1e-05
26,AUAAAAGCGCCAGAACUACAGAAAUGUAGUUGACGAGGAGGAGGUUUAUCCAAAUUACGGCGGAUGCCUCCAAA [G51C U54A U57A],< 1e-05

# Variants of: B1
# Assay: self-cleavage kobs at 2500 uM GlcN6P; higher = faster cleavage; RNA array
# Conditions: with glucosamine-6-phosphate
# Procedure, shortened: as §1
row,Variant,self-cleavage kobs at 2500 uM GlcN6P [s⁻¹]
1,AUAAAAGCGCCAGAACUACAGAAAUGUAGUUGACGAGGAGGAGGUUCAUAGAAUUUUCGGCGGAUGCCGCCAAA [U47C C50A U69G],9.43e-05 ± 2.6e-05
2,AUAAAAGCGCCAGAACUACAGAAAUGUAGUUGACGAGGAGGAGGUGUAUUGACUUUUCGGCGGUUGCCUCCAAA [U46G C50U A53C A64U],< 1e-05
3,AUAAAAGCGCCAGAACUACAGAAAUGUAGUUGACGAGGAGGAGGUGUAUCGAAUGUUCGGCGGAUGCCGCCAAA [U46G U55G U69G],6.16e-05 ± 1.8e-05
4,AUAAAAGCGCCAGAACUACAGAAAUGUAGUUGACGAGGAGGUGGUUUAUGGAAUUUUCGGCAGAUGCCUCUAAA [A42U C50G G62A C71U],< 1e-05
5,AUAAAAGCGCCAGAACUACAGAAAUGUAGUUGACGAGGAGGAGGUUUAUAUAAUCUUCGGCGGAUGCCUCCAAA [C50A G51U U55C],< 1e-05
6,AUAAAAGCGCCAGAACUACAGAAAUGUAGUUGACGAGGAGGAGGUUUAUCGCGUUUUCGGCGGUUGCCUCCAAA [A52C A53G A64U],< 1e-05
7,AUAAAAGCGCCAGAACUACAGAAAUGUAGUUGACGAGGAGGAGGUUGAUCAGAUUUUCGGCGGAGGCCUCCAAA [U47G G51A A52G U65G],< 1e-05
8,AUAAAAGCGCCAGAACUACAGAAAUGUAGUUGACGAGGAGGAGGUGUAUCGACUUUUCGGCGGAUGUCUCCAAA [U46G A53C C67U],0.000252 ± 8.5e-05
9,AUAAAAGCGCCAGAACUACAGAAAUGUAGUUGACGAGGAGGAGGUGUAUAGAAUUUUCGGCGGAUGGCUCCAAA [U46G C50A C67G],0.000506 ± 0.00017
10,AUAAAAGCGCCAGAACUACAGAAAUGUAGUUGACGAGGAGGAGGUUUUUCGAAUUUUUGGCGGCUGCCUCCAAA [A48U C58U A64C],< 1e-05
11,AUAAAAGCGCCAGAACUACAGAAAUGUAGUUGACGAGGAGGAGGUUUAUCCAAAUUACGGCGGAUGCCUCCAAA [G51C U54A U57A],< 1e-05

# From the supplement of paper PMC7125110
